Measurements as given in publication PMC9282883 (Nature, 2021).

Legend:
[1] = target: SARS-CoV-2 RBD WT (for crystallization) (SARS-CoV-2, UniProt P0DTC2); test: crystal structure
[2] = target: yeast-displayed unmutated SARS-CoV-2 RBD (Wuhan-Hu-1) (SARS-CoV-2, UniProt P0DTC2); test: flow cytometry on cells
[3] = target: Prefusion-stabilized SARS-CoV-2 spike protein for SPR (residues 14–1211, D614G) (SARS-CoV-2 Wuhan-Hu-1 with D614G, D614G); test: SPR

B1: S2X259 Fab (Fab, V domains shown)
VH: QVQLVQSGAEVKKPGSSVKVSCKASGGIFNTYTISWVRQAPGQGLEWMGRIILMSGMANYAQKIQGRVTITADKSTSTAYMELTSLRSDDTAVYYCARGFNGNYYGWGDDDAFDIWGQGTLVTVYS
VL: QTVLTQPPSVSGAPGQRVTISCTGSNSNIGAGYDVHWYQQLPGTAPKLLICGNSNRPSGVPDRFSGSKSGTSASLAITGLQAEDEADYYCQSYDSSLSGPNWVFGGGTKLTVL
binding result [1]: binds

B2: S2H14 IgG1 (antibody, V domains shown)
VH: not shown
VL: NFMLTQPHSVSESPGKTVTISCTRSSGSIASNYVQWYQQRPGSSPTTVIYEDNQRPSGVPDRFSGSIDSSSNSASLTISGLKTEDEADYYCQSYDSSNQVFGGGTKLTVL
binding result [2]: binds

B3: S2D106 Fab (Fab, V domains shown)
VH: EVQLVQSGAEVKKPGSSVKVSCKASGGPFSSSAISWVRQAPGQGLEWMGGIIPMVGTANYAQKFQGRVTITADESTSTAYMELSSLRSEDTAVYYCARDSRYCSGGSCYSVWFDPWGQGTLVTVSS
VL: not shown
Kd [3]: 0.17 nM
